Ends that are not written are not given here. Peptide text beside a SMILES is read from it. * marks the point of attachment. X1 = CCN1C(=CC=CC=CC2=[N+](CCCCCC(=O)NCCN3C(=O)CC(*)C3=O)c3ccc(S(=O)(=O)[O-])cc3C2(C)C)C(C)(C)c2cc(S(=O)(=O)O)ccc21
B1: nNOS-PDZ: recombinant extended PDZ domain of nNOS (12–130 human for FP; 12–134 Mus musculus for ITC/NMR) (protein, UniProt P29475 12-130, looked up, fragment)
chain: QPNVISVRLFKRKVGGLGFLVKERVSKPPVIISDLIRGGAAEQSGLIQAGDIILAVNGRPLVDLSYDSALEVLRGIASETHVVLILRGPEGFTTHLETTFTGDGTPKTIRVTQPLGPPT
B2: extended Mus musculus nNOS-PDZ (residues 12-134) (domain or fragment, UniProt Q9Z0J4 12-134, looked up)
chain: QPNVISVRLFKRKVGGLGFLVKERVSKPPVIISDLIRGGAAEQSGLIQAGDIILAVNDRPLVDLSYDSALEVLRGIASETHVVLILRGPEGFTTHLETTFTGDGTPKTIRVTQPLGTPTKAVD
notes: neuronal nitric oxide synthase (nNOS), Mus musculus, extended PDZ domain, residues 12-134, Uniprot Q9JJ30; Construct of the ITC and NMR experiments; 15N-labelled in some NMR samples; also called extended nNOS-PDZ; source: sub-cloned into pETM11, expressed and purified following a similar protocol to that of PSD-95-PDZ2
B3: PSD-95-PDZ2 (157-249, human) (domain or fragment, UniProt P78352 157-249, looked up)
chain: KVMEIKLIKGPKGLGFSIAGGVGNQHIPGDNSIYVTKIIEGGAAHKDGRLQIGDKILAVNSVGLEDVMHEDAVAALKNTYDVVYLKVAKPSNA
notes: PSD-95, human, PDZ2 domain, residues 157-249; Construct of the ITC and NMR experiments; 15N-labelled in some NMR samples

How the values were obtained:
[1] = biological target: PDZ2 (155-249) from PSD-95 (human); test: fluorescence polarisation; inhibition of TAMRA-Cnskr2 (5 nM)/PDZ2 (1.5 μM) or PDZ1-2 (1 μM) by increasing unlabelled nNOS-PDZ or GluN2B-C5; 1 x TBS pH 7.4; Ki calculated from IC50
[2] = biological target: PDZ1-2 (61-249) from PSD-95 (human); test: as above
nNOS-PDZ = biological target: T1, nNOS-PDZ (Homo sapiens, UniProt P29475); test: FP saturation and inhibition assay, Cy5-Nav1.4 probe / nNOS-PDZ; assay type: binding
T1 construct: nNOS-PDZ (12–130, human); made in house; host or cells: E. coli
Description: Fluorescent probes were made by attaching fluorophores (Cy5) to C-terminal 10- or 11-mer (C10 or C11) peptide ligands representing canonical and natural occurring protein partners (Supplementary Table S1). […] (Fig. 2).
(b) Cy5-GluN2B as probe (50 nM), [PDZ2] = 6 μM. (c) Cy5-CRIPT as probe (50 nM), [PDZ3] = 5 μM. […] Error bars indicate SEM based on three individual measurements.
nNOS-PDZ (12–130, human) and α-Syntrophin-PDZ (82–200, human), both comprising an N-terminal His-tag/FXa-site sequence ([…]), were likewise expressed in E. coli and purified by HisTrap chromatography followed by gel-filtration as described in details previously. To make the TAMRA-labelled nNOS-PDZ, mutant nNOS-PDZ (V36C) protein was generated by standard site-directed mutagenesis and characterized as described previously. Here, dithiothreitol was added to the pooled protein sample after HisTrap purification to a final concentration of 10 mM to eliminate unwanted disulfide bonds, and a final gel-filtration (50 mM NaPi buffer pH 7.5) was performed to remove impurities and salts. Next, purified nNOS-PDZ (V36C) was desalted by dialysis into 50 mM (NH4)2CO3 buffer (SnakeSkin dialysis tubing 3.5 MWCO, Pierce, Rockford, IL, USA) and subsequently lyophilized. nNOS-PDZ (V36C) was redissolved in 500 μL buffer (6 M GnHCl, 200 mM NaPi) and solid TAMRA-maleimide (5-tetramethylrhodamine-C2-maleimide; Anaspec, Fremont, CA, USA) was added in excess (cf. ESI-LC-MS). The coupling reaction was incubated at room temperature for 16 hours and TAMRA-labelled nNOS-PDZ was purified by preparative HPLC, and refolded in assay buffer. Functional validation was performed by FP[19], and all final proteins were characterized for purity and identity by SDS-PAGE and ESI-LC-MS.
Incubation time was 10–15 minutes (room temperature), and the assay was performed in a 1 × TBS buffer (150 mM NaCl, 10 mM Tris, pH 7.4) using black flat-bottom 384-well plates (Corning Life Sciences, NY) and a Safire2 plate-reader (Tecan, Männedorf, Switzerland). G-factor was adjusted so that probe alone (i.e. without protein interacting-partner) would give an FP value of 20 mP. This background value was subsequently subtracted from the raw data before plotting and analyzing the data. TAMRA- and Cy5-probes were measured at excitation/emission values of 530/585 nm (bandwidth = 20 nm) and 635/670 nm (bandwidth = 15 nm), respectively. […]
FP values were fitted to the general equation: Y = Bottom + (Top–Bottom)/[1 + (10^(X-logIC50)*HillSlope)], where X is the logarithmic value of peptide/compound concentration, and Y is the experimental FP values. Competitive inhibition constants, Ki values, were calculated from the IC50 values to quantify affinities between test substance and protein[42]. […]

[3] = biological target: TAMRA-labelled nNOS-PDZ (V36C) (human) (UniProt P29475); test: fluorescence polarisation; saturation binding: increasing PDZ domain protein (typically 0-150 μM) added to a fixed low concentration of TAMRA- or Cy5-labelled probe (5 or 50 nM); 1 x TBS (150 mM NaCl, 10 mM Tris, pH 7.4), 10-15 min, room temperature
TAMRA-Cnskr2 = test: as above
Cy5-Nav1.4 = test: as above
PSD-95-PDZ1-2 = biological target: T2, PSD-95-PDZ1-2 (Homo sapiens, UniProt P78352); test: FP saturation and inhibition, TAMRA-Cnskr2 / PSD-95-PDZ1-2; assay type: binding; details: TAMRA-Cnskr2 5 nM, PDZ1-2 1 μM
T2 construct: PDZ1-2 (61-249); made in house; host or cells: E. coli BL21-DE3 pLysS
Source text: (§1) First we tested a series of 23 fluorescent-labelled C-terminal peptide ligands (Supplementary Table S1) derived from PDZ-interacting proteins in order to find a probe with good activity towards the PSD-95 PDZ domains and no or little activity against nNOS-PDZ (Supplementary Fig. S1). The Cnskr2 probe fulfilled these selectivity criteria and was used to generate saturation curves with PDZ2 and PDZ1-2 of PSD-95 (Fig. 4a). […] Next, fixed concentrations of TAMRA-Cnskr2, PSD-95-PDZ2/1-2, and nNOS-PDZ were applied, corresponding to the conditions at IC50 of the nNOS-PDZ inhibition curve (Fig. 4b) where sensitivity of the assay is greatest. […] Here, we used the Sapk3-peptide as it has the desired high affinity to α1-Syntrophin-PDZ and low affinity to nNOS-PDZ (Supplementary Fig. S1).
(§2) The minor increases in mP at high concentrations, 260-2900 μM, were due to fluorescence artefacts.
(§3) Incubation time was 10–15 minutes (room temperature), and the assay was performed in a 1 × TBS buffer (150 mM NaCl, 10 mM Tris, pH 7.4) using black flat-bottom 384-well plates (Corning Life Sciences, NY) and a Safire2 plate-reader (Tecan, Männedorf, Switzerland). […] TAMRA- and Cy5-probes were measured at excitation/emission values of 530/585 nm (bandwidth = 20 nm) and 635/670 nm (bandwidth = 15 nm), respectively. […]

PSD-95-PDZ2 [4] = biological target: T3, PSD-95-PDZ2 (Homo sapiens, UniProt P78352); test: FP saturation and inhibition, TAMRA-Cnskr2 / PSD-95-PDZ2; assay type: binding; parameters: PDZ2 (155-249); made in house; host or cells: E. coli BL21-DE3 pLysS; details: TAMRA-Cnskr2 5 nM, PDZ2 […]
Source text: as §1, §2, §3

PSD-95-PDZ2 [5] = biological target: T3, PSD-95-PDZ2; test: ITC titration into PSD-95-PDZ2; assay type: binding; parameters: PSD-95-PDZ2 (157–249, human); made in house
Source text: Unlike the FP experiments above, which rely on inhibition of interaction partners, the ITC method is a direct measure of binding, regardless of where it takes place on the protein.
Figure 5 ITC curves. Plots showing titrations into PDZ domains fitted to a one-site model.
For isothermal titration calorimetry (ITC) and NMR, PSD-95-PDZ2 (157–249, human) was expressed and purified as described previously. The sequence for the extended Mus musculus nNOS-PDZ (residues 12–134, Uniprot Q9JJ30) was sub-cloned into a pETM11 vector using cloning sites Nco1 and Kpn1, and the protein was expressed and purified following a similar protocol to that used for the production of PSD-95-PDZ2.
All ITC experiments were carried out at 25 °C on an iTC200 Microcalorimeter (GE Healthcare) with a 200 μL cell capacity and 40 μL syringe volume. The buffer used for all solutions was 20 mM phosphate buffer at pH 6.3; each experiment consisted of an initial injection of 0.5 μL, followed by fifteen 2.39 μL injections before a final injection of 1.89 μL. […] In both cases no heat exchange was detected, confirming that there was appropriate match of buffer conditions with no indication of dilution effects. […] For the nNOS-PDZ/PSD-95-PDZ2 interaction, 100 μM PDZ2 in the cell was titrated with 750 μM nNOS-PDZ. […] All data was analysed using the Origin®7 software programme.

[6] = biological target: B3; test: ITC; 25 °C, 20 mM phosphate buffer pH 6.3; 100 μM PDZ2 in the cell titrated with 750 μM nNOS-PDZ; one-site model; details: both partners purified
[7] = biological target: B2; test: as above; details: both partners purified
[8] = biological target: PDZ2 (155-249) from PSD-95 (human); test: fluorescence polarisation; 'direct' FP inhibition assay: TAMRA-nNOS (5 nM) with fixed PDZ1 (7.5 μM), PDZ2 (2.5 μM) or PDZ1-2 (0.3 μM); increasing control compound; 1 x TBS pH 7.4
[9] = biological target: PDZ1 (61-151) from PSD-95 (human); test: as above
[10] = ITC, nNOS-PDZ titrated into PSD-95-PDZ2

GluN2B-C5 (peptide)
Ki [1]: 1600 nM
Ki [2]: 4800 nM

CCN1C(=CC=CC=CC2=[N+](CCCCCC(=O)NCCN3C(=O)CC(SC[C@H](N)C(=O)N[C@@H](CC(N)=O)C(=O)N[C@@H](CC(N)=O)C(=O)NCC(=O)N[C@H](C(=O)N[C@@H](CCCNC(=N)N)C(=O)N4CCC[C@H]4C(=O)NCC(=O)N[C@H](C(=O)N[C@@H](CCCCN)C(=O)N[C@@H](CCC(=O)O)C(=O)N[C@@H](CO)C(=O)N[C@@H](CC(C)C)C(=O)N[C@H](C(=O)O)C(C)C)C(C)C)C(C)C)C3=O)c3ccc(S(=O)(=O)[O-])cc3C2(C)C)C(C)(C)c2cc(S(=O)(=O)O)ccc21 (stereo partly drawn) [Cy5-Nav1.4] (H-C(X1)NNGVRPGVKESLV-OH; N-terminus assumed)
Kd (nNOS-PDZ; saturation curve, probe 50 nM): 20000 ± 1000 nM

PDZ2 (155-249) from PSD-95 (domain or fragment)
Kd [3]: 1100 nM
Kd (TAMRA-Cnskr2): 380 nM

nNOS-PDZ (12-130, human) (from UniProt P29475 12-130) (domain or fragment)
Kd (Cy5-Nav1.4): 20000 nM
Kd (TAMRA-Cnskr2): > 190000 nM
Ki [1]: 88 nM
Ki [2]: 810 nM

PDZ1-2 (61-249) from PSD-95 (domain or fragment)
Kd [3]: 150 nM
Kd (TAMRA-Cnskr2): 1100 nM

NNGVRPGVKESLV [Nav1.4-C10]
Ki (nNOS-PDZ; Cy5-Nav1.4 probe 50 nM / nNOS-PDZ): 45000 ± 4000 nM

PDZ1 (61-151) from PSD-95 (domain or fragment)
Kd [3]: 2400 nM

B1
Ki (PSD-95-PDZ1-2): 810 ± 23 nM
Ki (PSD-95-PDZ2 [4]): 88 ± 14 nM
Kd (PSD-95-PDZ2 [5]; 100 μM PDZ2 in cell titrated with 750 μM nNOS-PDZ, pH 6.3, 25 °C): ~670 nM
N (stoichiometry ratio) (PSD-95-PDZ2 [5]; [10]): 1.0
T∆S (PSD-95-PDZ2 [5]; [10]): ~6.7 kcal/mol
∆H (PSD-95-PDZ2 [5]; [10]): ~-1.7 kcal/mol

B2
dH [6]: ~-1.7 kcal/mol
stoichiometry N [6]: 1

B3
Kd [7]: ~670 nM

{N‑cyclohexylethyl}-ETAV [N-cyclohexylethyl-ETAV]
Ki [8]: 2000 nM
Ki [9]: 3900 nM
